Like-named read-outs stand apart in the source and are kept apart here.
Key:
[1] = target: T1, hnRNPK KH3 (Homo sapiens, UniProt P61978 384-463); experiment: ITC
[2] = target: T1, hnRNPK KH3; experiment: ITC; remark: listed apart in the source

T1 sequence (P61978 384-463): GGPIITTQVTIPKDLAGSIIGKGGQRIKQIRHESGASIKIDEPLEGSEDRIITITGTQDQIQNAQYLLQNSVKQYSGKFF

B1: heptamer RNA (ssRNA)
RNA: CUCCCGC
Work on B1 yielded a Kd [1] of 4.74 ± 1 µM and a Kd [2] of 4.31 ± 0.68 µM.

B2: mutant heptamer RNA (ssRNA)
RNA: CUAAAGC
B2: no binding [2].

Source: paper PMC10023864
